These sequences were tested against FGFR3 (UniProt P22607) (assay: phosphorylation enrichment, bacterial display (enrichment ratio); higher = better substrate or ligand; peptides without Tyr show the background).
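Further: 11-residue human phosphosite peptides and single-mutation variants displayed on the E. coli surface, counted by deep sequencing, each peptide's frequency after selection divided by its frequency in the unselected input library; frequency after pTyr selection over input frequency; kinase dosed for 20-30% of maximal phosphorylation in three min.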

FGFR3, sequence (P22607 whole entry, looked up): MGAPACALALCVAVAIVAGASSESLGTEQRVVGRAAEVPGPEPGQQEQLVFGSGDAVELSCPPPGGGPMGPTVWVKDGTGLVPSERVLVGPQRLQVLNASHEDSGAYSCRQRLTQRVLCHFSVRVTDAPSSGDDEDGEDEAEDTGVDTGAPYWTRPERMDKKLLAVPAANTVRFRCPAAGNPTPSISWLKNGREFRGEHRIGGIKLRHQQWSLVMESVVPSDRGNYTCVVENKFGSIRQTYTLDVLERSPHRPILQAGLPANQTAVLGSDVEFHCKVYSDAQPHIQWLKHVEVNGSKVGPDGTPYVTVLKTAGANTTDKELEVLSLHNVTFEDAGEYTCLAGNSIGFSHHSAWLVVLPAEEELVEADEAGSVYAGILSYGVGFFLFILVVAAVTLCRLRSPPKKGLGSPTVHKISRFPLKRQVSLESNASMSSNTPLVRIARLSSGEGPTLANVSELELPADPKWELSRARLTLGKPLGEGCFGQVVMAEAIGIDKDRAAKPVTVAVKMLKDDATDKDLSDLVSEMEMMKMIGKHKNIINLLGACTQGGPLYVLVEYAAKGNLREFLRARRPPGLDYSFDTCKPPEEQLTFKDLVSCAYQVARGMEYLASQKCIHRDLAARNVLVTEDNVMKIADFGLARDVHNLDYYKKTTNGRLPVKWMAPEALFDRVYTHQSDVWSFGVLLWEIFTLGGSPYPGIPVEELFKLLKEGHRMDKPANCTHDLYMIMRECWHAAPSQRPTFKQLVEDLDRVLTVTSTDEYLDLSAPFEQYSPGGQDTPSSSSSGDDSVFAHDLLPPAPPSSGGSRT

Sequence | phosphorylation enrichment
KLQQWYREPRS [GPI_Y17_H20P] | 0.491
EESREYDRLFE [PIK3R1_Y463_K459E_YF] | 0.762
LQEQNYPAVDS [FAM114A1_Y115_L116P] | 1.54
PDKRIYQFTAS [SKAP2_Y197_A202S] | 0.649
VTRAKYFIRDE [GNAS_Y339] | 0.432
CLAQRYLIWEC [SCN5A_Y694_R689C] | 0.783
HVLEEYKPKQG [SAXO2_Y37_P34L] | 1.39
NRSSLYLVAGP [KIAA1614_Y1083] | 0.607
PQAVTYAEVKH [LILRB4_Y360_K362E] | 0.625
CTTIPYNYMCN [TP53_Y234_H233P] | 0.605
YGSSSYRGAGG [RPA2_Y14_G15R] | 0.409
SVSVNYGDQVQ [GRAP_Y101] | 0.561
MSNVPYVMNRG [ACAT1_Y161] | 0.594
MARDIYQASFF [LTK_Y672_R673Q_YF] | 0.564
AIYEGYALPHA [ACTC1_Y171_P166A] | 0.773
QPDFLYDHIQP [TRRAP_Y862] | 1.45
LGSVVYAHSKE [KCNQ2_Y226] | 0.419
NAGDFYDLFGG [PTPN11_Y63_T59A_YF] | 0.769
ECKETYHEGEC [PRKN_Y372_A371T] | 0.808
FPRAWCRRSIA [KIAA1109_Y4272_Y4272C] | 0.441
PLDGGYFTLQI [TP53_Y327_E326G] | 1.59
QCTSAYPLQPE [NANS_Y188] | 0.942
CQLENYCNGGG [INS_Y108_Y103C] | 0.664
QSSEGYGLGDR [KIAA1210_Y564] | 0.677
FGAHNYHPLPV [OAT_Y55_YF] | 3.33
ALAHKYDGGGG [HBB_Y146_H147D] | 0.494
YSGDYYRIQGR [DDR2_Y741] | 8.65
FGEFRYRSVIK [CFTR_Y517_D513G_YF] | 0.541
EKRDAYVSRLN [GSR_Y150] | 0.441

What follows are sequences tested on Fer (mouse) in the same assay as above.

Sequence | phosphorylation enrichment
KLQQWYREPRS [GPI_Y17_H20P] | 0.385
EESREYDRLFE [PIK3R1_Y463_K459E_YF] | 0.599
LQEQNYPAVDS [FAM114A1_Y115_L116P] | 0.878
PDKRIYQFTAS [SKAP2_Y197_A202S] | 0.802
VTRAKYFIRDE [GNAS_Y339] | 0.325
CLAQRYLIWEC [SCN5A_Y694_R689C] | 0.568
HVLEEYKPKQG [SAXO2_Y37_P34L] | 0.552
NRSSLYLVAGP [KIAA1614_Y1083] | 0.495
PQAVTYAEVKH [LILRB4_Y360_K362E] | 0.804
CTTIPYNYMCN [TP53_Y234_H233P] | 0.424
YGSSSYRGAGG [RPA2_Y14_G15R] | 0.465
SVSVNYGDQVQ [GRAP_Y101] | 0.442
MSNVPYVMNRG [ACAT1_Y161] | 0.377
MARDIYQASFF [LTK_Y672_R673Q_YF] | 3.26
AIYEGYALPHA [ACTC1_Y171_P166A] | 22.6
QPDFLYDHIQP [TRRAP_Y862] | 12
LGSVVYAHSKE [KCNQ2_Y226] | 0.416
NAGDFYDLFGG [PTPN11_Y63_T59A_YF] | 2.43
ECKETYHEGEC [PRKN_Y372_A371T] | 0.696
FPRAWCRRSIA [KIAA1109_Y4272_Y4272C] | 0.455
PLDGGYFTLQI [TP53_Y327_E326G] | 0.766
QCTSAYPLQPE [NANS_Y188] | 0.675
CQLENYCNGGG [INS_Y108_Y103C] | 0.49
QSSEGYGLGDR [KIAA1210_Y564] | 0.871
FGAHNYHPLPV [OAT_Y55_YF] | 0.35
ALAHKYDGGGG [HBB_Y146_H147D] | 0.635
YSGDYYRIQGR [DDR2_Y741] | 0.429
FGEFRYRSVIK [CFTR_Y517_D513G_YF] | 0.396
EKRDAYVSRLN [GSR_Y150] | 0.328

These sequences were tested against Fes (UniProt P07332) in the same assay as above.
Fes, sequence (P07332 whole entry, looked up): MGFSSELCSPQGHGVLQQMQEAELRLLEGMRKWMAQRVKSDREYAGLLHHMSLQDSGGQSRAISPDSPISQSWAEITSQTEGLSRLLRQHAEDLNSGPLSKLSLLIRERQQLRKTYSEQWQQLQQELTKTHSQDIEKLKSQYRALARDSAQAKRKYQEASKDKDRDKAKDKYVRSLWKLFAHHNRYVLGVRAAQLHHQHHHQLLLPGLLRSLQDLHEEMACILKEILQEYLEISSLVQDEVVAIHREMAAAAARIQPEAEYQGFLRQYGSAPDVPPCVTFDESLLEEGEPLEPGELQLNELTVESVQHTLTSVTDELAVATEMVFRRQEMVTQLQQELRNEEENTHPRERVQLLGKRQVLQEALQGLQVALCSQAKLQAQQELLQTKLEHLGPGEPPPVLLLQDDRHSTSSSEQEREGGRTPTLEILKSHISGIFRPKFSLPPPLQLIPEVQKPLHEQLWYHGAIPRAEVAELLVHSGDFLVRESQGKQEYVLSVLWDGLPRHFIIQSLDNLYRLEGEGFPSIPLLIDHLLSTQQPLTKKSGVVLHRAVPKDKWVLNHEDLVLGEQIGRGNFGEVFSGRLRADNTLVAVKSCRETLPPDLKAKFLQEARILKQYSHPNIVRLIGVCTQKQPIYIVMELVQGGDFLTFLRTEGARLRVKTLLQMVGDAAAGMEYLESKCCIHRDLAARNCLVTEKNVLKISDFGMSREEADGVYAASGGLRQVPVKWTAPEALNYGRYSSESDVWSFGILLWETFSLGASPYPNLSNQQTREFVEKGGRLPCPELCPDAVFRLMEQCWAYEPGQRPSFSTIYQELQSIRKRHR

Sequence | phosphorylation enrichment
KLQQWYREPRS [GPI_Y17_H20P] | 0.708
EESREYDRLFE [PIK3R1_Y463_K459E_YF] | 1.49
LQEQNYPAVDS [FAM114A1_Y115_L116P] | 1.86
PDKRIYQFTAS [SKAP2_Y197_A202S] | 0.684
VTRAKYFIRDE [GNAS_Y339] | 0.694
CLAQRYLIWEC [SCN5A_Y694_R689C] | 1.39
HVLEEYKPKQG [SAXO2_Y37_P34L] | 0.834
NRSSLYLVAGP [KIAA1614_Y1083] | 0.91
PQAVTYAEVKH [LILRB4_Y360_K362E] | 1.03
CTTIPYNYMCN [TP53_Y234_H233P] | 0.863
YGSSSYRGAGG [RPA2_Y14_G15R] | 0.483
SVSVNYGDQVQ [GRAP_Y101] | 0.902
MSNVPYVMNRG [ACAT1_Y161] | 0.619
MARDIYQASFF [LTK_Y672_R673Q_YF] | 0.887
AIYEGYALPHA [ACTC1_Y171_P166A] | 1.37
QPDFLYDHIQP [TRRAP_Y862] | 1.74
LGSVVYAHSKE [KCNQ2_Y226] | 0.596
NAGDFYDLFGG [PTPN11_Y63_T59A_YF] | 1.16
ECKETYHEGEC [PRKN_Y372_A371T] | 1.62
FPRAWCRRSIA [KIAA1109_Y4272_Y4272C] | 0.686
PLDGGYFTLQI [TP53_Y327_E326G] | 1.75
QCTSAYPLQPE [NANS_Y188] | 1.46
CQLENYCNGGG [INS_Y108_Y103C] | 0.89
QSSEGYGLGDR [KIAA1210_Y564] | 1.06
FGAHNYHPLPV [OAT_Y55_YF] | 0.535
ALAHKYDGGGG [HBB_Y146_H147D] | 0.7
YSGDYYRIQGR [DDR2_Y741] | 0.846
FGEFRYRSVIK [CFTR_Y517_D513G_YF] | 0.891
EKRDAYVSRLN [GSR_Y150] | 0.575

The sequences below were run against Fyn (UniProt P06241) in the same assay as above.
Fyn, sequence (P06241 whole entry, looked up): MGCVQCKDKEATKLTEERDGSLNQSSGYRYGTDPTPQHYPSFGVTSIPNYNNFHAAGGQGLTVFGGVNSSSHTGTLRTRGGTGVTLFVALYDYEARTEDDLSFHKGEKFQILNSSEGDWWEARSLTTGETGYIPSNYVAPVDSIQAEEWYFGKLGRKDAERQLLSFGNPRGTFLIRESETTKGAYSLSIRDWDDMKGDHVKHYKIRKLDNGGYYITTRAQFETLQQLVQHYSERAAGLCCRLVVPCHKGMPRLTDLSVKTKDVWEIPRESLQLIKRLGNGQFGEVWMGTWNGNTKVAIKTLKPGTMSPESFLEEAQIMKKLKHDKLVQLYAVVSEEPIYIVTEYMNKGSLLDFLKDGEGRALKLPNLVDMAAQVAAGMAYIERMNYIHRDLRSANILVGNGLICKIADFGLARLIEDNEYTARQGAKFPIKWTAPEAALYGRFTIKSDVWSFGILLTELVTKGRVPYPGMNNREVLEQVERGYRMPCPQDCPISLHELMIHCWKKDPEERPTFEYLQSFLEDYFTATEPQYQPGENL

Sequence | phosphorylation enrichment
KLQQWYREPRS [GPI_Y17_H20P] | 0.446
EESREYDRLFE [PIK3R1_Y463_K459E_YF] | 0.493
LQEQNYPAVDS [FAM114A1_Y115_L116P] | 0.92
PDKRIYQFTAS [SKAP2_Y197_A202S] | 0.826
VTRAKYFIRDE [GNAS_Y339] | 0.404
CLAQRYLIWEC [SCN5A_Y694_R689C] | 0.533
HVLEEYKPKQG [SAXO2_Y37_P34L] | 1.19
NRSSLYLVAGP [KIAA1614_Y1083] | 0.534
PQAVTYAEVKH [LILRB4_Y360_K362E] | 5.58
CTTIPYNYMCN [TP53_Y234_H233P] | 0.47
YGSSSYRGAGG [RPA2_Y14_G15R] | 0.386
SVSVNYGDQVQ [GRAP_Y101] | 0.409
MSNVPYVMNRG [ACAT1_Y161] | 0.426
MARDIYQASFF [LTK_Y672_R673Q_YF] | 6.4
AIYEGYALPHA [ACTC1_Y171_P166A] | 15.9
QPDFLYDHIQP [TRRAP_Y862] | 6.9
LGSVVYAHSKE [KCNQ2_Y226] | 0.407
NAGDFYDLFGG [PTPN11_Y63_T59A_YF] | 5.68
ECKETYHEGEC [PRKN_Y372_A371T] | 0.649
FPRAWCRRSIA [KIAA1109_Y4272_Y4272C] | 0.557
PLDGGYFTLQI [TP53_Y327_E326G] | 0.726
QCTSAYPLQPE [NANS_Y188] | 0.832
CQLENYCNGGG [INS_Y108_Y103C] | 0.54
QSSEGYGLGDR [KIAA1210_Y564] | 0.842
FGAHNYHPLPV [OAT_Y55_YF] | 0.468
ALAHKYDGGGG [HBB_Y146_H147D] | 0.367
YSGDYYRIQGR [DDR2_Y741] | 1.04
FGEFRYRSVIK [CFTR_Y517_D513G_YF] | 0.409
EKRDAYVSRLN [GSR_Y150] | 0.351

Reference: the supplement of paper PMC10065799, “High-throughput profiling of sequence recognition by tyrosine kinases and SH2 domains using bacterial peptide display” (eLife, 2023)
